± gives the uncertainty stated by the source.
Test: protein stability index of a GFP-peptide fusion (yeast GPS) (PSI 1-4); higher = more stable; sorted into four equal gates, so the index is relative within each strain
Conditions: san1∆
Summary of the method: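 Yeast carrying a pooled library were grown to mid-log phase in leucine-free medium. Each library plasmid expresses Cherry and has a tiled 17-residue yeast protein peptide fused downstream of GFP. Cells were sorted into four equal gates by GFP/Cherry ratio, and plasmids from each gate were PCR-amplified, Illumina-sequenced and assigned to strains by barcode. Summing, across gates, the read frequency times the gate number gave each peptide's protein stability index.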

First: KIVVVRAEALNISGEFF [RPL16B]
Second: KKEANLFPEQQNKEIKA [RPL6A]
The protein stability index of the first is lower: 2.56 ± 0.14 for the first, 3.21 ± 0.076 for the second.

Going from KKEEELGVKSRLLEKSE [SNF2] to KKFLRVRIFTKIESEDD [SRB4], the protein stability index falls from 3.06 ± 0.2 to 1.16 ± 0.13.

Compared with KKHLKRLAAPHHWLLDK [RPS4A], KKICNHPFVFEEVEDQI [SNF2] is lower in protein stability index: 3.18 ± 0.08 for the first, 2.94 ± 0.06 for the second.

Going from KKIKGKSIQDIVGLATL [SRP21] to KKIREIYRYDEMSNKVL [BRR2], the protein stability index falls from 3.177 ± 0.026 to 2.62 ± 0.086.

Going from KKITLQLLDTSNQRFKD [SIN4] to KKKRFEIKKWTAVAFWS [HRT1], the protein stability index falls from 2.91 ± 0.048 to 1.55 ± 0.26.

Going from KKLPRKTHRGLRKVACI [RPL3] to KKLVWPLHLIFAQPVAD [SSN2], the protein stability index falls from 2.65 ± 0.064 to 1.26 ± 0.11.

Compared with KKMMNTLVHTRVKIANT [SSN2], KKNKRALPNIENDIIKL [BRR2] is higher in protein stability index: 2.67 ± 0.041 for the first, 3.23 ± 0.04 for the second.

Compared with KKNSSRPMPPIRGPKRR [SMD3], KKNVWRSINNLIQEHDS [BRN1] is higher in protein stability index: 2.14 ± 0.055 for the first, 2.63 ± 0.052 for the second.

Going from KKRKIHNGREGSIEEPE [MCD1] to KKRLMDIDDELNELETL [SMC2], the protein stability index falls from 3.17 ± 0.051 to 3 ± 0.034.

First: KKSVNKLDKQINMADRS [POP6]
Second: KKVVIVKPHDEGSKSHP [RPL27A]
The protein stability index of the first is lower: 2.63 ± 0.079 for the first, 2.82 ± 0.093 for the second.

KLEPKEIVRDILHTKES [SIR4] and KLKQLLDESSEQKNTAK [YIL149C/MLP2] are within error of each other in protein stability index: 2.5 ± 0.18 for the first, 2.6 ± 0.17 for the second.

Going from KLLFQELMAMNITPRLY [RPB2] to KLLIQIDELSNGQRSNS [SMC1], the protein stability index rises from 1.24 ± 0.13 to 3.14 ± 0.1.

KLLQLAGVEDVYTQSNG [RPS2] and KLQFETDRLSTTQRRYE [SMC1] are within error of each other in protein stability index: 3.19 ± 0.13 for the first, 3.12 ± 0.086 for the second.

Compared with KLQSQSLHTKNVFGTLQ [YLR018C/POM34], KLSISNAASQQPTPRSA [GAL11] is higher in protein stability index: 2.29 ± 0.26 for the first, 2.73 ± 0.058 for the second.

Going from KLSKILPRYQELTKEEA [SMC3] to KLTDEQSSLDVAGLEDK [SIR3], the protein stability index falls from 3.34 ± 0.086 to 2.75 ± 0.083.

Going from KLTSEETVFNYRLMIKR [GRR1] to KLVEIIWNDVVYGEGTS [YJL039C/NUP192], the protein stability index rises from 2.56 ± 0.12 to 3.39 ± 0.098.

Compared with KLVLNISVGESGDRLTR [RPL11A], KLWFQLSESLTKFFDDA [RPN9] is higher in protein stability index: 2.6 ± 0.2 for the first, 3.02 ± 0.066 for the second.

First: KLYQTEPSGIYSSWSAQ [PRE6]
Second: KMELVYVSDSDDSSSDN [SIR4]
The protein stability index of the first is higher: 2.87 ± 0.11 for the first, 2.47 ± 0.078 for the second.

Going from KMFIQRILAMCVKNHGQ [YCS4] to KMIDFATLSKLKKKYQI [SIR3], the protein stability index rises from 2.22 ± 0.071 to 3.53 ± 0.051.

KMNNKPERFMVFQLPTR [RPC53] and KMSVTCNAQPITRSVMR [BRR2] are within error of each other in protein stability index: 2.65 ± 0.085 for the first, 2.72 ± 0.056 for the second.

Going from KNAQYHLLVKQGDGLLT [RPN7] to KNATEELLRLANEQLKL [CSN12], the protein stability index rises from 1.12 ± 0.18 to 2.89 ± 0.077.

Compared with KNDKLIKIEDFVDDMLR [SNF5], KNDNIKKSVNKLDKQIN [POP6] is higher in protein stability index: 1.98 ± 0.078 for the first, 2.73 ± 0.059 for the second.

Compared with KNFIESESVGAFLSFLA [YJL039C/NUP192], KNFKGIEEIEYNVKNII [PCI8] is higher in protein stability index: 2.47 ± 0.066 for the first, 3.11 ± 0.061 for the second.

First: KNGNEYNEFLYSKAGRE [QCR8]
Second: KNKGLVVSPYDYNHKRV [DIB1]
The protein stability index of the first is lower: 2.77 ± 0.06 for the first, 3.02 ± 0.14 for the second.

KNLISRINTLPQVQLPV [ECM29] and KNLKDTASVEKAEFSKE [YIL149C/MLP2] are within error of each other in protein stability index: 2.9 ± 0.16 for the first, 3.09 ± 0.1 for the second.

Going from KNLKPQEQLKNVKNDVS [YIL149C/MLP2] to KNSTSSMTAVPKPLKFL [RPN1], the protein stability index falls from 2.51 ± 0.1 to 1.98 ± 0.062.

Compared with KNTEEGKALVHHYEECA [QCR6], KNTELSYDFLPLSNIKA [RPN12] is lower in protein stability index: 3.5 ± 0.051 for the first, 3.08 ± 0.086 for the second.

Compared with KNVKHSGNIQLDEIIEI [RPL12A], KNVNIEDITEPKPDKPS [ESC2] is lower in protein stability index: 3.15 ± 0.053 for the first, 2.51 ± 0.1 for the second.

Going from KNVRTRIKLATTSERVS [RRI1] to KNYLKNYILNFKQSNSE [CDC53], the protein stability index falls from 2.8 ± 0.086 to 2.34 ± 0.083.

KPAFSFGAKSDEKKDSD [YJL041W/NSP1] and KPAFSFGINTNTTKTAD [YLR335W/NUP2] are within error of each other in protein stability index: 3.21 ± 0.058 for the first, 3.11 ± 0.063 for the second.

First: KPALGSLGSSSTTASGT [YGR119C/NUP57]
Second: KPMNKGQHKNNTSLNIN [SWP82]
The protein stability index of the first is higher: 3.05 ± 0.062 for the first, 2.91 ± 0.066 for the second.

Compared with KPNLNYFKSILLNKNTG [SWI1], KPSNGKGSRKSSKAATP [SNF12] is higher in protein stability index: 1.76 ± 0.066 for the first, 3.24 ± 0.079 for the second.

First: KPTSPFIDSICKLFDKI [SRB8]
Second: KPWFATVNGQARDLATM [FAS1]
The protein stability index of the first is lower: 1.56 ± 0.055 for the first, 3 ± 0.083 for the second.

Going from KQKSWVPSYIHVEKERA [YIL149C/MLP2] to KQTAAYRTPGSSGVLSS [SSN2], the protein stability index rises from 2.12 ± 0.082 to 2.87 ± 0.077.

First: KQYDNRITKSNEKSQAE [LRP1]
Second: KRAASVARHIYMRKQVG [RPS19A]
The protein stability index of the first is higher: 2.77 ± 0.075 for the first, 1.88 ± 0.28 for the second.

KRCVGVILGDANSSTIR [RPN8] and KREASRGFFDILSLATE [MCD1] are within error of each other in protein stability index: 2.82 ± 0.061 for the first, 2.91 ± 0.063 for the second.

Going from KREGKTRLLNIVMQLRK [ISW2] to KRHSYAQSSHIRAIRKV [RPS1A], the protein stability index falls from 3.11 ± 0.054 to 2.423 ± 0.022.

KRLSAALSKFLTHPKYL [YML103C/NUP188] and KRRKLDLNNAVQKRDEV [SMC4] are within error of each other in protein stability index: 2.84 ± 0.07 for the first, 2.96 ± 0.068 for the second.

First: KRSDLTGANSIYSVEKK [UBP6]
Second: KRSTVPLNDGFVDLVEH [YML103C/NUP188]
The protein stability index of the first is lower: 2.57 ± 0.15 for the first, 3.37 ± 0.12 for the second.

KSEFDDLSLNIHPIPSV [YMR129W/POM152] and KSIIGKLTAERANLRKY [POP1] are within error of each other in protein stability index: 2.75 ± 0.032 for the first, 2.8 ± 0.07 for the second.

Going from KSKEDMKQLKFFKPLDY [SNU114] to KSKGDVDIKGEDLHEKN [NUT1], the protein stability index rises from 3.05 ± 0.16 to 3.44 ± 0.15.

Compared with KSKKSWLNRLNNWLFGW [YMR153W/NUP53], KSKTSTGKERSKKRKLN [SNM1] is higher in protein stability index: 2.51 ± 0.053 for the first, 3.644 ± 0.036 for the second.

Compared with KSLGLKLPLSVINVSAQ [RPS17A], KSNSTGNISSSTVKKKD [REC8] is higher in protein stability index: 1.41 ± 0.13 for the first, 2.83 ± 0.039 for the second.

Going from KSQEQREHSLQLFRTNK [PRP28] to KSSAFVIDIGASGCNVT [ARP7], the protein stability index falls from 2.88 ± 0.12 to 2.17 ± 0.067.

Compared with KSSILTVLQKNSLLLDS [YML103C/NUP188], KSSNDTIEHAADITDGN [YCG1] is higher in protein stability index: 1.56 ± 0.075 for the first, 3.23 ± 0.17 for the second.

Compared with KSSVPGSAELRNSYPAS [RPN3], KSVRILKNKAEYLKNCP [RPC40] is higher in protein stability index: 2.73 ± 0.078 for the first, 3.12 ± 0.049 for the second.

KSYASLLAQLNGTVNNN [RPT3] and KTADVKRQYVKQFLTKD [RPL20A] are the same in protein stability index: 2.2 ± 0.19 for the first, 2.2 ± 0.07 for the second.

Going from KTAYSIYLSQNELTDAI [RPN1] to KTDLELLVERLKEDDSS [RPN1], the protein stability index rises from 2.71 ± 0.037 to 3.05 ± 0.1.

Compared with KTDPAGYYVGYKATATG [SCL1], KTICNLLISDTESNELI [IRR1] is lower in protein stability index: 3.21 ± 0.065 for the first, 2.4 ± 0.055 for the second.

Going from KTIEVTAEINCFMHLLV [RPN3] to KTITLEVESSDTIDNVK [RPS31], the protein stability index rises from 1.78 ± 0.2 to 2.77 ± 0.12.

First: KTITSGLKYALATGNWG [RPB2]
Second: KTKWDRKPMGKRINFEK [POP1]
The protein stability index of the first is lower: 2.19 ± 0.079 for the first, 2.75 ± 0.23 for the second.

Sequence KTLCARAVANRTDATFI [RPT1] has a protein stability index of 1.26 ± 0.15.

Source: the supplement of paper PMC9732359
